Measured values published in FireProtDB (doi:10.1021/bi00369a002).
Where “and” joins values, the source holds several entries; their conditions need not be identical. Identical values can stand only once.

B1: Tryptophan synthase alpha chain, P0A877 (parent)
chain: MERYESLFAQLKERKEGAFVPFVTLGDPGIEQSLKIIDTLIEAGADALELGIPFSDPLADGPTIQNATLRAFAAGVTPAQCFEMLALIRQKHPTIPIGLLMYANLVFNKGIDEFYAQCEKVGVDSVLVADVPVEESAPFRQAALRHNVAPIFICPPNADDDLLRQIASYGRGYTYLLSRAGVTGAENRAALPLNHLVAKLKEYNAAPPLQGFGISAPDQVKAAIDAGAAGAISGSAIVKIIEQHINEPEKMLAALKVFVQPMKAATRS

Variants of: B1
Conditions: Escherichia coli (strain K12); pH 7.8; 25 °C; Urea; Absorbance; Potassium phosphate 10 mM; transition: 3; structure 1WQ5; whole UniProt chain shown

Y175C
denaturant m value: 3 kcal/mol/M and 1.1 kcal/mol/M | denaturant midpoint (higher = more stable): 2.58 M and 3.71 M

G211E
denaturant m value: 3 kcal/mol/M and 1.5 kcal/mol/M | denaturant midpoint (higher = more stable): 2.73 M and 3.72 M

Y175C G211E
ddG of mutation (higher = less stable): 1.3 kcal/mol and 1 kcal/mol | denaturant m value: 3 kcal/mol/M and 1.4 kcal/mol/M | denaturant midpoint (higher = more stable): 2.2 M and 3.49 M
